Measured values as given in US20190153406A1 (PEKING UNIVERSITY, published 2019).

Assays:
[1] = biological target: T1, rat insulin receptor substrate IRS1 (rat, UniProt P35570 1-1235, limits assumed); test: SPR, purified IRS1 immobilized, purified MG53 in mobile phase
T1 construct: The legend says Rat IRS1; also called Rat IRS1
T1 sequence (looked up): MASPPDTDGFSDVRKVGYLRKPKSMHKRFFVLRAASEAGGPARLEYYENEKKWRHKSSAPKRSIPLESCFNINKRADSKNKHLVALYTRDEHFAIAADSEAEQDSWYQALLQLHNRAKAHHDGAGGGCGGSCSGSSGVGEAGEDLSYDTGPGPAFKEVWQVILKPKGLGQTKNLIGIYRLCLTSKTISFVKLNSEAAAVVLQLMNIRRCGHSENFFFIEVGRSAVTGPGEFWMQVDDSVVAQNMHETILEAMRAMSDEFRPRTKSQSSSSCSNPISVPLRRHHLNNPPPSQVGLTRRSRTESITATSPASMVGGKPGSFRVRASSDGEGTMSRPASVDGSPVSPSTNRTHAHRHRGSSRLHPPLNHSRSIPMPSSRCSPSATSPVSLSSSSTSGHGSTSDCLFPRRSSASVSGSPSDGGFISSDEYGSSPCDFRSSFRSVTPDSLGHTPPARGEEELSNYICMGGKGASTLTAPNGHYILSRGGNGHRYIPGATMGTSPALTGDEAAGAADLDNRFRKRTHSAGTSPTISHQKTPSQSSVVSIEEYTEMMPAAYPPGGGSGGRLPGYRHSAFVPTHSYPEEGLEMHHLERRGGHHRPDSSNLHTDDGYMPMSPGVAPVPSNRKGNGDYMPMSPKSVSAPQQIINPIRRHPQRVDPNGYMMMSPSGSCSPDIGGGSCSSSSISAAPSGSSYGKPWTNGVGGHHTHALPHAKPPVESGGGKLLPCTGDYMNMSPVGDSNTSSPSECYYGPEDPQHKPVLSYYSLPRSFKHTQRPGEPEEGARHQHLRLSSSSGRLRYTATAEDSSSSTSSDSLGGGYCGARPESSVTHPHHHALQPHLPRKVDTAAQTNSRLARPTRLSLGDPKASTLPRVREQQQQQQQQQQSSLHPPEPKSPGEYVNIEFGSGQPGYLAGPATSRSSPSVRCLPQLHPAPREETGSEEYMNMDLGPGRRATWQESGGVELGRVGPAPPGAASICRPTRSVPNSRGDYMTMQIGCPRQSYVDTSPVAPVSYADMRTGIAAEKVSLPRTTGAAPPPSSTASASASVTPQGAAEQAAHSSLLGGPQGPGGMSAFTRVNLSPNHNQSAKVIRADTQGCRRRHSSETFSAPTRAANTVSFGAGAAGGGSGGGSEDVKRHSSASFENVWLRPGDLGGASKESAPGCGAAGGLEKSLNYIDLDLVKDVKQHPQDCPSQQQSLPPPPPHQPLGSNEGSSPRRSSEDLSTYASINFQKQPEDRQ

[2] = biological target: T1, rat insulin receptor substrate IRS1; test: SPR, Rat IRS1 immobilized (500 RU), MG53-S255A in the mobile phase [lower panel]

B1: mouse wild-type MG53 (enzyme)
chain: MSAAPGLLRQELSCPLCLQLFDAPVTAECGHSFCRACLIRVAGEPAADGTVACPCCQAPTRPQALSTNLQLSRLVEGLAQVPQGHCEEHLDPLSIYCEQDRTLVCGVCASLGSHRGHRLLPAAEAQARLKTQLPQQKMQLQEACMRKEKTVAVLEHQLVEVEETVRQFRGAVGEQLGKMRMFLAALESSLDREAERVRGDAGVALRRELSSLNSYLEQLRQMEKVLEEVADKPQTEFLMKFCLVTSRLQKILSESPPPARLDIQLPVISDDFKFQVWKKMFRALMPALEELTFDPSSAHPSLVVSSSGRRVECSDQKAPPAGEDTRQFDKAVAVVAQQLLSQGEHYWEVEVGDKPRWALGVMAADASRRGRLHAVPSQGLWLLGLRDGKILEAHVEAKEPRALRTPERPPARIGLYLSFADGVLAFYDASNPDVLTPIFSFHERLPGPVYPIFDVCWHDKGKNAQPLLLVGPEQEQA
notes: Expressed from a plasmid in HEK293T cells for co-IP and degradation assays; purified protein in the mobile phase for SPR; also called TRIM72; Mitsugumin 53
Binder B1 has a Kd [1] of 0.0642 µM.

B2: mouse MG53 S255A mutant (enzyme)
chain: MSAAPGLLRQELSCPLCLQLFDAPVTAECGHSFCRACLIRVAGEPAADGTVACPCCQAPTRPQALSTNLQLSRLVEGLAQVPQGHCEEHLDPLSIYCEQDRTLVCGVCASLGSHRGHRLLPAAEAQARLKTQLPQQKMQLQEACMRKEKTVAVLEHQLVEVEETVRQFRGAVGEQLGKMRMFLAALESSLDREAERVRGDAGVALRRELSSLNSYLEQLRQMEKVLEEVADKPQTEFLMKFCLVTSRLQKILSEAPPPARLDIQLPVISDDFKFQVWKKMFRALMPALEELTFDPSSAHPSLVVSSSGRRVECSDQKAPPAGEDTRQFDKAVAVVAQQLLSQGEHYWEVEVGDKPRWALGVMAADASRRGRLHAVPSQGLWLLGLRDGKILEAHVEAKEPRALRTPERPPARIGLYLSFADGVLAFYDASNPDVLTPIFSFHERLPGPVYPIFDVCWHDKGKNAQPLLLVGPEQEQA
B2: no binding (tested: 1000 nM) [2].
